Holding throughout (test): SPOT array
In assay [1] the target is T1, Boi1 SH3 (BOI1_YEAST), P38041.
T1 chain: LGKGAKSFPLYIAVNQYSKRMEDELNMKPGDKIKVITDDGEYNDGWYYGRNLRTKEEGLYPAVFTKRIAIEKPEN

In assay [2] the target is T2, Yfr024 SH3 (LSB3_YEAST), P43603.
T2 chain: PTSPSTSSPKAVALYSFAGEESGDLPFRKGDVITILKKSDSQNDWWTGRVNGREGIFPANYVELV

The target of assay [3] is T3, Yhr016c SH3 (YSC84_YEAST), P32793.
T3 chain: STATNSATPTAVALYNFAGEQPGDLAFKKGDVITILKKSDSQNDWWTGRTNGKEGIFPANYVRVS

Assay [4] concerns the target T4, Boi2 SH3 (BOI2_YEAST), P39969.
T4 chain: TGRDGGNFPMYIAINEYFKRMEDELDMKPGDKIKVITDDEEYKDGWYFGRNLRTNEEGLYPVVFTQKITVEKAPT

Assay [5] has as its target T5, Rvs167 SH3 (RV167_YEAST), P39743.
T5 chain: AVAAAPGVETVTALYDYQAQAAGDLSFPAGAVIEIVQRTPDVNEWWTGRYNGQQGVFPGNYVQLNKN

B1: YGR019W 6-19 (peptide)
chain: QYYPEEPTKPTVKT
As for B1, the normalised SPOT signal, Boehringer light units (BLU); mean over the file's lines of this peptide in assay [1] is 55.2; in assay [2], 49.9; in assay [3], 85.8; in assay [4], 37.2; in assay [5] it was 6.4.

B2: YKL165C 41-54 (peptide)
chain: QSTPTPPAKRLFLI
With B2, the normalised SPOT signal, Boehringer light units (BLU); mean over the file's lines of this peptide in assay [1] was determined as 56.9; in assay [2], 1420; in assay [3] it was 146; in assay [4], 48.8; in assay [5], 35.4.

B3: YCL014W 878-891 (peptide)
chain: QRHPKSPVKKPMTS
In the case of B3, the normalised SPOT signal, Boehringer light units (BLU); mean over the file's lines of this peptide in assay [1] is 123; in assay [2], 676; in assay [3] it was 169; in assay [4], 90.5; in assay [5], 192.

B4: YMR129W 524-537 (peptide)
chain: RFDPKSPTKRSIAI
On to B4, for which the normalised SPOT signal, Boehringer light units (BLU); mean over the file's lines of this peptide in assay [1] worked out at 129; in assay [2] it was 321; in assay [3] it was 71.9; in assay [4], 62; in assay [5] it was 40.

B5: YIR003W 387-400 (peptide)
chain: RAPPPVPKKPSSRI
As to B5, the normalised SPOT signal, Boehringer light units (BLU); mean over the file's lines of this peptide in assay [1] turned out to be 129; in assay [2] it was 28900; in assay [3], 501; in assay [4], 42; in assay [5], 29.1.

B6: YDR207C 482-495 (peptide)
chain: QYIPPPPPKYINSK
B6: the normalised SPOT signal, Boehringer light units (BLU); mean over the file's lines of this peptide in assay [1] was 122; in assay [2] it was 393; in assay [3] it was 81.6; in assay [4], 45.9; in assay [5], 112.

B7: YNL257C 304-317 (peptide)
chain: QVPPKSPEKSGWLY
Turning to B7, the normalised SPOT signal, Boehringer light units (BLU); mean over the file's lines of this peptide is 11.9 in assay [1]; 0 in assay [2]; 117 in assay [3]; 22.9 in assay [4]; 23.7 in assay [5].

B8: YLR086W 108-121 (peptide)
chain: QSPPRSPGRSPTRR
Take B8: the normalised SPOT signal, Boehringer light units (BLU); mean over the file's lines of this peptide in assay [1] was 33500; in assay [2], 1890; in assay [3], 408; in assay [4], 3450; in assay [5] it was 906.

B9: YLR169W 91-104 (peptide)
chain: RSSPWSPSRSHGAV
As for B9, the normalised SPOT signal, Boehringer light units (BLU); mean over the file's lines of this peptide in assay [1] is 147; in assay [2] it was 2360; in assay [3], 1090; in assay [4], 92.9; in assay [5], 117.

B10: YBL085W 600-613 (peptide)
chain: QSNPTSPTKQTFTI
Take B10: the normalised SPOT signal, Boehringer light units (BLU); mean over the file's lines of this peptide in assay [1] was 62.2; in assay [2] it was 148; in assay [3] it was 182; in assay [4], 65.7; in assay [5], 60.4.

B11: YFR028C 427-440 (peptide)
chain: QTSPGQPRKGQNGS
For the molecule B11, the normalised SPOT signal, Boehringer light units (BLU); mean over the file's lines of this peptide came to 157 in assay [1]; 118 in assay [2]; 177 in assay [3]; 22.6 in assay [4]; 64 in assay [5].

B12: YOR329C 404-417 (peptide)
chain: QQLPLEPLKPTATG
On to B12, for which the normalised SPOT signal, Boehringer light units (BLU); mean over the file's lines of this peptide worked out at 143 in assay [1]; 257 in assay [2]; 122 in assay [3]; 27.2 in assay [4]; 45.9 in assay [5].

B13: YBR108W 543-556 (peptide)
chain: RAVPILPPRNNVEP
Take B13: the normalised SPOT signal, Boehringer light units (BLU); mean over the file's lines of this peptide in assay [1] was found to be 49.7; in assay [2], 38300; in assay [3], 33600; in assay [4] it was 77; in assay [5], 59500.

B14: YKL214C 57-70 (peptide)
chain: REEPPLPKRIRISK
Consider B14, for which the normalised SPOT signal, Boehringer light units (BLU); mean over the file's lines of this peptide turned out to be 2310 in assay [1]; 49100 in assay [2]; 50200 in assay [3]; 65.9 in assay [4]; 11800 in assay [5].

B15: YGR268C 24-37 (peptide)
chain: QSQPPRPPRPAANL
For B15, the normalised SPOT signal, Boehringer light units (BLU); mean over the file's lines of this peptide in assay [1] came out at 577; in assay [2], 27400; in assay [3] it was 11000; in assay [4], 16; in assay [5] it was 105.

B16: YOR322C 391-404 (peptide)
chain: QRLPGEPGREQAPN
B16: the normalised SPOT signal, Boehringer light units (BLU); mean over the file's lines of this peptide in assay [1] is 103; in assay [2], 61.7; in assay [3] it was 118; in assay [4], 14; in assay [5], 2.1.

B17: YJR147W 216-229 (peptide)
chain: QRQPKRPKRYSLLL
B17: the normalised SPOT signal, Boehringer light units (BLU); mean over the file's lines of this peptide in assay [1] turned out to be 117; in assay [2] it was 5420; in assay [3], 613; in assay [4] it was 194; in assay [5], 104.

B18: YMR016C 219-232 (peptide)
chain: QTYPAQPPKIGNAF
B18: the normalised SPOT signal, Boehringer light units (BLU); mean over the file's lines of this peptide stood at 42.7 in assay [1]; 117 in assay [2]; 263 in assay [3]; 35.1 in assay [4]; 33.9 in assay [5].

B19: YJL184W 49-62 (peptide)
chain: RDKPSEPERTKDGS
For the molecule B19, the normalised SPOT signal, Boehringer light units (BLU); mean over the file's lines of this peptide in assay [1] is 74.9; in assay [2], 112; in assay [3] it was 120; in assay [4] it was 27.8; in assay [5], 24.1.

(Values after publication PMC314469, “Protein Interaction Networks by Proteome Peptide Scanning” (PLoS Biology, 2004).)
